# In the supplement of paper PMC9170038:
# Test system: MS2 coat protein
# Assay: apparent KD of MS2 coat protein; higher = weaker reporter binding
# Details: Eterna round: R107; input ligand: arginine 13.2 mM
# Method: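 RNA-MaP round R107: designed RNA switches with theophylline, tryptophan, arginine or FMN aptamers are transcribed on-chip within common flanks. They are titrated with SNAP-549-labelled MS2 coat protein in RNA-MaP buffer (100 mM Tris pH 7.5, 80 mM KCl, 4 mM MgCl2), without ligand or with the indicated ligand. Median apparent KD per design.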
row,Sequence,apparent KD of MS2 coat protein
1,CAAUUUAUAUGAAGGAGCGUCGAAAAUGGGUAAACAUGAGGAUCACCCAUGUAAAGGGAACGACAGGUAGGUCGCAUAUGGAUUG [AstromonsSSArgB#10],123 nM
2,AGCCGCGUUCUUUCUUUCUUUCUAGCGGCACGAGGACCGGUACGGCCGCCACUCGCCCACAUGAGGAUCACCCAUGUAGUGGGUG [The One Ring #2],18.5 nM
3,GGGUACAUCGCGGCCGCCACUUGUGUAAAUACAUGAGGAUCACCCAUGUCGAUGGAGACAUCGGCAAGGACCGGGUGAUGUACCG,107 nM
4,AAACAUUGCUCAGAUACCAGACAUGAGGAUCACCCAUGUACCAAGGUAACCGAAAGGCAUGUCCCUUGGCAGCUGAGCAAUGAAA [MAT - Exclusion Theophlline B - Mod of Eli - D15],13.5 nM
5,CGCCACUCGAGUGAUCCUCACGAGUGGCUACGAGGACCGGUACGGCCGCCACUCGAAUUAACAUGAGGAUCACCCAUGUACUCCA [Brourdmod10],17.4 nM
6,AGCCCGGGAGCGGCCGCCACUGGAGGCUUUGCGCGACAUGAGGAUCACCCAUGUGUGCCCGGCGUUAGGACCGGGCUCGCGUGGU [#1 Same State - Tryptophan B Attempt #21 (HarryS)],27.8 nM
7,AGCAGUACAACAGAUACCAGACUUUUCAUGCCUUUAAUUACAUGAGGAUCACCCAUGUUUGUCCCUUGGCAGCUGUUGUACUGCA [JR_ExcTheophyB_Sub011],29.5 nM
8,CUCAUCCACGCGGCCGCCACUAUAUUGUGGUGUGAAUGUGACGUAUUACAUGAGGAUCACCCAUGUAGGACCGGGCGUGGAUGAG [#07 Exclusion Tryptophan B],55.8 nM
9,GGAUAGGACACGGCCGCCACUACCUAGGAUACUAGCAACAUUUGGGUACAUGAGGAUCACCCAUGUAGGACCGGGUGUCCUAUCG,31.9 nM
10,CGAGUAAGAACAAUCGAAUAACGGUUUUCGCGAGGACCGGUACGGCCGCCACUCGUGUGAUAUAACACAUGAGGAUCACCCAUGU [3'end-1],25.3 nM
11,GGGUACAUCGCGGCCGCCACUUUUGUAAAUACAUGAGGAUCACCCAUGUCGAUGGAGACAUCGGUGAGGACCGGGUGAUGUACCG,196 nM
12,AGUGGUGCAACUGAUACCAGAUUUAUACGAGACAUGAGGAUCACCCAUGUCGAAAGACAAAUCCCUUGGCAGCAGACACGAUCCC [theeternabot_sameState_MS2_Theo_B_25],9.88 nM
13,UGUAACAUGAGGAUCACCCAUGUGAGUGAUACCAGAUUAGUAUUAGUCCCUUGGCAGCACGUUGGGCGAGUGUAUAGUCUAUGCG [Same State - Theophylline A (Freestyle 13)],90.9 nM
14,ACAUGAGGAUCACCCAUGUAUUCAUCAGAAGGAGCGUGGAAUAACACAGGUAGGUCGCUGAUUAUUUGUUAAAUAAAAUCGUGUA [JR_Nu_SSArginiA_Sub022],12.5 nM
15,UGACAUUGCUCAGAUACCAGACACGAGGAUCACCCGUGUGCCAACAAGUACAAAAUAAAUGUCCCUUGGCAGCUGAGCAAUGUCU [TheoBX 24 #MS2Left #AlternativeMS2 #Theo22],11.9 nM
16,ACAUUUAACUGAAGGAGCGUGAUAAACAUGAGGAUCACCCAUGUACCACAGAUUCUUAGAUCACAGGUAGGUCGCAGACUAAUGA [JR_ExcArginiB_Sub013],11.2 nM

# Same assay, conditions: Eterna round: R107; input ligand: none
row,Sequence,apparent KD of MS2 coat protein
1,CAAUUUAUAUGAAGGAGCGUCGAAAAUGGGUAAACAUGAGGAUCACCCAUGUAAAGGGAACGACAGGUAGGUCGCAUAUGGAUUG [AstromonsSSArgB#10],180 nM
2,GGGUACAUCGCGGCCGCCACUUGUGUAAAUACAUGAGGAUCACCCAUGUCGAUGGAGACAUCGGCAAGGACCGGGUGAUGUACCG,130 nM
3,AGCCCGGGAGCGGCCGCCACUGGAGGCUUUGCGCGACAUGAGGAUCACCCAUGUGUGCCCGGCGUUAGGACCGGGCUCGCGUGGU [#1 Same State - Tryptophan B Attempt #21 (HarryS)],33.4 nM
4,GGAUAGGACACGGCCGCCACUACCUAGGAUACUAGCAACAUUUGGGUACAUGAGGAUCACCCAUGUAGGACCGGGUGUCCUAUCG,25.3 nM
5,GGGUACAUCGCGGCCGCCACUUUUGUAAAUACAUGAGGAUCACCCAUGUCGAUGGAGACAUCGGUGAGGACCGGGUGAUGUACCG,624 nM
6,ACAUGAGGAUCACCCAUGUAUUCAUCAGAAGGAGCGUGGAAUAACACAGGUAGGUCGCUGAUUAUUUGUUAAAUAAAAUCGUGUA [JR_Nu_SSArginiA_Sub022],17.3 nM
7,UGACAUUGCUCAGAUACCAGACACGAGGAUCACCCGUGUGCCAACAAGUACAAAAUAAAUGUCCCUUGGCAGCUGAGCAAUGUCU [TheoBX 24 #MS2Left #AlternativeMS2 #Theo22],12.2 nM
8,ACAUUUAACUGAAGGAGCGUGAUAAACAUGAGGAUCACCCAUGUACCACAGAUUCUUAGAUCACAGGUAGGUCGCAGACUAAUGA [JR_ExcArginiB_Sub013],11.7 nM

# Same assay, conditions: Eterna round: R107; input ligand: theophylline 20 uM
row,Sequence,apparent KD of MS2 coat protein
1,CAAUUUAUAUGAAGGAGCGUCGAAAAUGGGUAAACAUGAGGAUCACCCAUGUAAAGGGAACGACAGGUAGGUCGCAUAUGGAUUG [AstromonsSSArgB#10],234 nM
2,AGCCGCGUUCUUUCUUUCUUUCUAGCGGCACGAGGACCGGUACGGCCGCCACUCGCCCACAUGAGGAUCACCCAUGUAGUGGGUG [The One Ring #2],27.7 nM
3,GGGUACAUCGCGGCCGCCACUUGUGUAAAUACAUGAGGAUCACCCAUGUCGAUGGAGACAUCGGCAAGGACCGGGUGAUGUACCG,172 nM
4,AAACAUUGCUCAGAUACCAGACAUGAGGAUCACCCAUGUACCAAGGUAACCGAAAGGCAUGUCCCUUGGCAGCUGAGCAAUGAAA [MAT - Exclusion Theophlline B - Mod of Eli - D15],17.4 nM
5,CGCCACUCGAGUGAUCCUCACGAGUGGCUACGAGGACCGGUACGGCCGCCACUCGAAUUAACAUGAGGAUCACCCAUGUACUCCA [Brourdmod10],173 nM
6,AGCCCGGGAGCGGCCGCCACUGGAGGCUUUGCGCGACAUGAGGAUCACCCAUGUGUGCCCGGCGUUAGGACCGGGCUCGCGUGGU [#1 Same State - Tryptophan B Attempt #21 (HarryS)],32.5 nM
7,AGCAGUACAACAGAUACCAGACUUUUCAUGCCUUUAAUUACAUGAGGAUCACCCAUGUUUGUCCCUUGGCAGCUGUUGUACUGCA [JR_ExcTheophyB_Sub011],62.8 nM
